Tested on: GlyExendin-4 (Glycine-extended Exendin-4, Exendin-4 precursor with C-terminal glycine)

Substance	N-terminal clipping of GlyExendin-4 (HPLC and LCMS of peptide expressed in STE13-disrupted clone D2)	(N-2) impurity of GlyExendin-4 (HPLC of peptide expressed in DAP2-disrupted Pichia clone)
Pichia pastoris homolog of Saccharomyces cerevisiae STE13 dipeptidyl peptidase	the expressed GlyExendin-4 when checked by HPLC and LCMS was not N-terminally clipped	
Pichia pastoris homolog of Saccharomyces cerevisiae dipeptidyl peptidase DAP2		This continued to show (N-2) impurity

— patent publication US20100167342
